Data on nine substances can be found in patent US20130244232A1, “HIGH-EFFICIENCY CATALYSTS, PREPARATION AND USE THEREOF” (priority 2012, published 2013).

Data set [1] in a line: Peroxidase activity: ABTS oxidation with H2O2 (formation of ABTS+• radical cation at 660 nm). To be noted: for Specific activity: ABTS oxidation with H2O2, pH 6.5. Type of data set: biochemical. The protocol:
The peroxidase activity of the compound on the secondary substrate ABTS was evaluated by following the formation of the ABTS^+• radical cation, in the presence of H2O2.
The reaction was followed by using spectrophotometry, measuring the appearance of the products in the reaction medium. The formation of ABTS^+• cation radical was followed at 660 nm (λmax (ε)=660 nm (1.40×10^4 M^−1cm^−1)). The reaction was performed in 50% TFE (v/v) 100 mM phosphate buffer, pH 6.5, using a 2.0×10^−7 M catalyst concentration.
Kinetic parameters of the compound were determined by varying the H2O2 concentration using fixed concentrations of the reducing substrates, and vice versa.
In more details, in the experiments performed at various H2O2 concentrations (in the range 0.01÷ 200 mM) the ABTS concentration was kept constant at 0.1 mM. In the experiments performed at various ABTS concentrations (in the range 0.005÷ 0.1 mM) the H2O2 concentration was 50 mM.
The experiments were performed in 50% TFE (v/v) 100 mM phosphate buffer, pH 6.5. As described in the example 10, the catalytic process was evaluated by following the formation of the ABTS^+• radical cation at 660 nm (c=[…] cm^−1). Kinetic parameters of the compound were determined by varying the H2O2 concentration using fixed concentrations of the reducing substrates, and vice versa.
In more details, in the first experiment the ABTS and the conjugate concentrations were kept constant at 0.1 mM and 2 10^−7 M, respectively, and the H2O2 concentration was varied in the range 10-100 mM. In the second experiment, the H2O2 and the conjugate concentrations were fixed at 50 mM and 2 10^−7 M, respectively, and the ABTS concentration was varied in the range 0.005÷ 0.1 mM.

Data set [2] in a line: Peroxidase activity: guaiacol oxidation with H2O2 (tetraguaiacol formation at 470 nm). Type of data set: biochemical. The protocol:
The peroxidase activity on the guaiacol substrate was evaluated by following the formation of guaiacol oxidation product, tetraguaiacol. Changes in the absorbance at 470 nm were measured, considering a ε470=2.66×10^4 M^−1cm^−1.
In details, in the experiments performed at various H2O2 concentrations (in the range 1÷ 40 mM), the guaiacol concentration was kept constant at 0.1 mM. In the experiments performed at various guaiacol concentrations, in the range 0.0025÷ 0.07 mM, the H2O2 concentration was 10 mM.

Data set [3] can be described thus: Phenol nitration (NaNO2/H2O2), HPLC analysis. It is filed as biochemical. To be noted: 40 min, room temperature, substrate and oxidant 1.0 mM, 40 mM NO2−, 0.2 μM catalyst, pH 6.5, 50% TFE. As to the method: For the compound Fe(III)-3,7,12,17-tetramethyl-porphyrin-2(18)-N9epsilon-(Ace-Asp1-Glu2-Gln3-Gln4-Leu5-His6-Ser7-Gln8-Lys9-Arg10-Lys11-Ile12-Thr13-Leu14-NH2)-18(2)-N9epsilon-(Ace-Asp1-Glu2-Gln3-Gln4-Leu5-Ser6-Ser7-Gln8-Lys9-Arg10-NH2)-di-propionammide, whose synthesis is described in example 1, the ability to catalyze phenol nitration was evaluated. […] The concentrations of the starting material and products were determined from calibration curves constructed using commercial samples and 4-cyanophenol as internal standard. Standard incubation for phenol nitration were performed at 1 mM phenol in the presence of 0.2 μM catalyst, 20 mM NaNO2 and 3 mM H2O2 in phosphate buffer, pH 6.5, 50% TFE (v/v).
The reactions were performed at room temperature with an incubation time of 40 min. […] The yield of 4- and 2-nitrophenol at 40 min reaction time increased by increasing H2O2 NO2″ and phenol concentrations. The maximum yield of nitrophenols (4- and 2-) was obtained at a substrate and oxidant concentrations of 1.0 mM, and at 40 mM NO2^− concentration, respectively.

The conditions of data set [4]: ABTS oxidation with H2O2, pH 7.0; cited from earlier work.
For data set [5] the following is noted: in the presence of lactoperoxidase; cited from earlier work.
[6] abbreviates: ABTS oxidation with H2O2, pH 6.5, 50% TFE (v/v) 100 mM phosphate buffer.
[7] abbreviates: ABTS oxidation with H2O2, pH 6.5, 50% TFE (v/v) 100 mM phosphate buffer, read-out: Km^H2O2.
Where [8] appears, read: AH2 = ABTS, pH 6.5, 50% TFE (v/v) 100 mM phosphate buffer, read-out: Km^AH2.

For orientation: kcat means the number of substrate molecules converted per active site and unit of time at saturation. Usually Km stands for the concentration of substrate that gives half-maximal velocity.

Where two headings read alike, the source gives them in different places.

Regarding “3,7,12,17-tetramethyl-porphyrin-2 (18)-N9epsilon-(Ace-Asp1-Glu2-Gln3-Gln4-Leu5-His6-Ser7-Gln8-Lys9-Arg10-Lys11-Ile12-Thr13-Leu14-NH2)-18(2)-N9epsilon-(Ace-Asp1-Glu2-Gln3-Gln4-Leu5-Gly6-Ser7-Gln8-Lys9-Arg10-NH2)-di-propionamide [Example 7]”, in data set [1], the Specific activity is 7.976 mol/g/min. Also, the kcat in data set [1] (setting [6]) amounted to 468 s⁻¹. In addition, the Km in data set [1] (setting [7]) turned out to be 46000 µM; in data set [1] (setting [8]), 125 µM.
For the substance “3,7,12,17-tetramethyl-porphyrin-2(18)-N9epsilon-(Ace-Asp1-Glu2-Gln3-Gln4-Leu5-His6-Ser7-Gln8-Lys9-Arg10-Lys11-Ile12-Thr13-Leu14-NH2)-18(2)-N9epsilon-(Ace-Asp1-Glu2-Gln3-Gln4-Leu5-Ser6-Ser7-Gln8-Lys9-Leu10-NH2)-di-propionamide [Example 9]”, the Specific activity in data set [1] is 2.890 mol/g/min. For the same substance, the kcat in data set [1] (setting [6]) is 169 s⁻¹. For the same substance, the Km in data set [1] (setting [7]) was 20000 µM; in data set [1] (setting [8]), 29 µM.
In the same order, the values of “3,7,12,17-tetramethyl-porphyrin-2(18)-N9epsilon-(Ace-Asp1-Glu2-Gln3-Gln4-Leu5-His6-Ser7-Gln8-Lys9-Arg10-Lys11-Ile12-Thr13-Leu14-NH2)-18(2)-N9epsilon-(Ace-Asp1-Leu2-Gln3-Gln4-Leu5-Ser6-Ser7-Gln8-Lys9-Arg10-NH2)-di-propionamide [Example 8]” are 6.463 mol/g/min, 381 s⁻¹, 96000 µM and 115 µM.
Regarding “3,7,12,17-tetramethyl-porphyrin-2(18)-N9epsilon-(Ace-Asp1-Glu2-Gln3-Gln4-Leu5-His6-Ser7-Gln8-Lys9-Leu10-Lys11-Ile12-Thr13-Leu14-NH2)-18(2)-N9epsilon-(Ace-Asp1-Glu2-Gln3-Gln4-Leu5-Ser6-Ser7-Gln8-Lys9-Arg10-NH2)-di-propionamide [Example 5]”, the Specific activity in data set [1] came to 11.72 mol/g/min; in data set [1] (listed as Esempio 5), 11.716 mol/g/min. In addition, in data set [1] (setting [6]), the kcat stood at 685 s⁻¹. Moreover, the Michaelis-Menten constant (Km) in data set [1] (setting [7]) stood at 54000 µM; in data set [1] (setting [8]), 38 µM.
“3,7,12,17-tetramethylporphyrin-18(2)-propionicacid-2(18)-N9epsilon-(Ac-Asp1-Glu2-Gln3-Gln4-Leu5-His6-Ser7-Gln8-Lys9-Arg10-Lys11-Ile12-Thr13-Leu14-NH2)propionamide [Example 4]”: the Specific activity in data set [1] amounted to 17.86 mol/g/min; in data set [1] (listed as Esempio 4), 17.860 mol/g/min. Also, the kcat in data set [1] (setting [6]) is 688 s⁻¹. For the same substance, the Km was found to be 80000 µM in data set [1] (setting [7]) and 130 µM in data set [1] (setting [8]).
For the substance “Fe(III)-3,7,12,17-tetramethyl-porphyrin-2(18)-N9epsilon-(Ace-Asp1-Glu2-Gln3-Gln4-Leu5-His6-Ser7-Gln8-Lys9-Arg10-Lys11-Ile12-Thr13-Leu14-NH2)-18(2)-N9epsilon-(Ace-Asp1-Glu2-Gln3-Gln4-Leu5-Ser6-Ser7-Gln8-Lys9-Arg10-NH2)-di-propionammide [Example 1]”, the Specific activity in data set [1] came out at 6.269 mol/g/min. The kcat came to 370.9 ± 14 s⁻¹ in data set [1] (setting [6]); 371 s⁻¹ in data set [1] (ABTS oxidation with H2O2, pH 6.5, 50% TFE (v/v) 100 mM phosphate buffer, listed as Esempio 1); 8.0 ± 0.1 s⁻¹ in data set [2] (guaiacol oxidation with H2O2). The Km in data set [1] (setting [7]) was determined as 44000 µM; in data set [1] (setting [8]) it was 84 µM; in data set [1] (AH2 = ABTS, pH 6.5, 50% TFE, 2.0×10^−7 M catalyst, read-out: Km^AH2), 84 ± 2 µM; in data set [2] (AH2 = guaiacol) it was 9.2 ± 0.4 µM. For the same substance, in data set [1] (pH=6.5), the “specific activity for ABTS oxidation” value amounted to 104 mmol/g/s. Moreover, the “specific activity for guaiacol oxidation relative to horseradish peroxidase” value in data set [2] (versus horseradish peroxidase) is listed as “two times higher”. Moreover, the “total yield of nitrophenols (4- and 2-)” value in data set [3] was “about 14.8%”.
With “H-Cys-Ala-Gln-Cys-His-Thr-Val-Glu-OH (CAQCHTVE; heme covalently attached; printed: Cys-Ala-Gln-Cys-His-Thr-Val-Glu-) [MP8, microperoxidase, mono-adduct porphyrin obtained from proteolytic digestion of cytochromes c]”, in data set [4], the Specific activity is 0.000104 mol/g/min and the kcat was 0.0026 s⁻¹.
“H-VQKCAQCHTVE-OH (cysteine pairing not given here) [MP11]”: in data set [4], the Specific activity was 0.000419 mol/g/min and the kcat was 0.013 s⁻¹.
On to lactoperoxidase, for which the “total yield of nitrophenols relative to the compound of example 1” value in data set [5] was “fourfold higher”.
